Measured values reported in US20110014224A1.

Target: HLA-B1501 (human)
Assay: competition with radiolabeled probe peptide for purified HLA, plate capture, cpm

B1: Mtb8.4 5-15 peptide … (peptide)
peptide: AVINTTCNYGQ
modifications: not checked
  IC50: 10 nM
